# Test results as given in PMC10699647, “Structural basis of G protein–Coupled receptor CMKLR1 activation and signaling induced by a chemerin-derived agonist” (PLOS Biology, 2023).
# Experiments:
# [1] = test system: CMKLR1; settings: cited from earlier work
# Description: The apparent contradictory functional roles of CMKLR1 in inflammation may be associated with the spatiotemporal regulation of the inflammation processes in cells. It is possible that in the early stage of inflammation, the CMKLR1 signaling is mainly pro-inflammatory by promoting chemotaxis and activation of DCs and macrophages, whereas at the late stage of inflammation, CMKLR1 activation can induce pro-resolving pathways to dampen inflammation. Another possibility for the differing effects of CMKLR1 signaling on inflammation is that different chemerin isoforms may activate CMKLR1 to induce dis ... || The potential roles of CMKLR1 signaling in inflammation may provide promising new opportunities for developing anti-inflammatory drugs. […] Nevertheless, the only commercially a ...
# [2] = test system: primary human macrophages; assay: Macrophage differentiation assay, surface markers by flow cytometry (MFI fold-change); settings: 72 hours, 10 ng/mL (each), vs M0, n = 4 donors
# Description: Monocytes were enriched from human PBMC by CD14 beads positive selection (Miltenyi Biotec) and cultured in IMDM supplanted with 10% human AB serum (Omega Scientific, Cat# HS-20) for 7 days for them to differentiate to macrophages.
# Differentiated macrophages were then replated to low-bind plate at 0.15 million cells per 24-well plate, in 500 μl medium overnight before stimulated with various condition. Human macrophage medium was used as M0 reference culture condition, while 10 ng/ml IFNg plus 10 ng/ml LPS supplement were used as M1 reference, and 10 ng/ml IL-10 supplement used as M2 reference. […] Data were acquired on Cytek Aurora flowcytometry, analysis on Flowjo. MFI quantifications were normalized to M0 condition and statistically analyzed by 2-way ANOVA, with Dunnett’s multiple comparisons test; all groups were pair analyzed with M0 group as reference.
molecule,measurement,setting,value
C[N+](C)(C)CCC(=O)c1cccc2ccccc12.[I-] [α-NETA],potency against CMKLR1,"[1]; antagonist, ref [30]",low micromolar potency
"chemerin15: synthetic peptide corresponding to the 141–155 amino acid segment of chemerin (AGEDPHSFYFPGQFA; UniProt Q99969 141-155, looked up, fragment)",agonism and anti-inflammatory effects,"[1]; CMKLR1, ref [9]",stable agonists of CMKLR1 that induce anti-inflammatory effects
"IL-10: 10 ng/ml IL-10 supplement used as M2 reference (protein, UniProt P22301 19-178, looked up) Interleukin-10: SPGQGTQSENSCTHFPGNLPNMLRDLRDAFSRVKTFFQMKDQLDNLLLKESLLEDFKGYLGCQALSEMIQFYLEEVMPQAENQDPDIKAHVNSLGENLKTLRLRLRRCHRFLPCENKSKAVEQVKNAFNKLQEKGIYKAMSEFDIFINYIEAYMTMKIRN",CD86 expression in words,[2],down-regulation
same,CD163 expression in words,[2],up-regulation
same,CD206 expression in words,[2],up-regulation
